Residue numbers refer to the chain shown, from its start. Where two headings read alike, the source gives them in different places. Blank lines part the entries; values can stand above or below the binder they belong to.
Columns and labels:
[1] = target: T1, human Claudin18.2 (CLDN18.2), full length, on cells (human); test: cell-based or functional assay
[2] = target: T1, human Claudin18.2 (CLDN18.2), full …; test: cell-based or functional assay; remark: listed apart in the source
[3] = target: T1, human Claudin18.2 (CLDN18.2), full …; test: FACS on NUGC4 cells
Description: (§1) Human gastric cancer cells NUGC4 and stably transfected cells CHO-K1-CLDN18.1 (prepared in Example 5) were used respectively, to verify the specificity and affinity of the anti-CLDN18.2 antibodies above at the cellular level by FAGS technology. After antibody affinity maturation and screening in vitro, each antibody can bind to the CLDN18.2 target on NUGC4 cells, but not to CHO-K1-CLDN18.1 cells, as compared with the original 3CHI antibody.

[4] = target: T1, human Claudin18.2 (CLDN18.2), full …; test: cell-based or functional assay; remark: listed apart in the source
[5] = target: T2, antigen protein Claudin18.2-His (human, UniProt P56856-2 1-261, limits assumed); test: BLI (Fortebio Octet RED96), antibody on AHC sensor, Claudin18.2-His in solution, 37 °C
T2 construct: also called CLDN18.2 protein
Description: Next, antibodies were immobilized by the AHC sensor, and then combined with different concentrations of antigens, and determination of the affinity was performed according to the manual of Octet RED96.

[6] = target: T3, human Claudin18.1 (CLDN18.1), full length, on cells (human, UniProt P56856 1-261); test: FACS on CHO-K1-CLDN18.1 cells
T3 construct: HEK293-CLDN18.1 cells carry a fusion with green fluorescent protein (ZsGreen); CHO-K1-CLDN18.1 cells carry pcDNA3.1-CLDN18.1; The cell line is named under assay; also called CLDN18.1-FL; HEK293-CLDN18.1 cells
Description: as §1

[7] = target: T3, human Claudin18.1 (CLDN18.1), full …; test: cellular ELISA
[8] = target: T1, human Claudin18.2 (CLDN18.2), full …; test: cellular ELISA

- binding result [7]: no binding
- binding result [8]: binds
B6: 308CHI (antibody, V domains shown)
VH: EVKLVESGGGLVQPGGSLKLSCAASGFGFSDYGMAWVRQAPRKGPEWVAFISNSAYSIYYADTVTGRFTISRENAKNTLYLEMSSLRSEDTAMYYCARLGYGNSFAYWGQGTLVTVSA
VL: DIVMTQSPSSLTVTAGEKVTMSCKSSQSLLNSGNQKNYLTWYQQKPGQPPKLLIYWASTRESGVPDRFTGSGSGTDFTLTISSVQAEDLAVYYCQNDYSLPFTFGAGTKLELK
notes: chimeric with the constant region of human IgG1

- binding result [7]: no binding
- binding result [8]: binds
B7: 313CHI (antibody, V domains shown)
VH: B6 VH with G28T, S54L, Y101R
VL: B6 VL with D97N, S99Y, L100Y, F102L
notes: as for B6

- binding result [7]: no binding
- binding result [8]: binds
B8: 307CHI (antibody, V domains shown)
VH: B6 VH
VL: B6 VL with D97N, S99Y, L100Y, F102L
notes: as for B6

- binding result [7]: no binding
- binding result [8]: binds
B9: 312CHI (antibody, human IgG1, V domains shown)
VH: B6 VH with G28T, D31R, R42G
VL: B6 VL with D97E, Y98L, S99F, L100Y, F102L
notes: as for B6

- binding result [7]: no binding
- binding result [8]: binds
B11: 304CHI (antibody, V domains shown)
VH: B6 VH
VL: B6 VL with S62P, L100Y, F102L
notes: as for B6

- binding result [7]: no binding
- binding result [8]: binds
B12: 319CHI (antibody, V domains shown)
VH: B6 VH with Y101R
VL: B6 VL with D97N, S99Y, L100Y, F102L
notes: as for B6

- binding result [7]: no binding
- binding result [8]: binds
B13: 302CHI (antibody, V domains shown)
VH: B6 VH with G28T, S54L
VL: B6 VL
notes: as for B6

- binding result [7]: no binding
- binding result [8]: binds
B14: 306CHI (antibody, V domains shown)
VH: B6 VH with G28T, S54L, Y101R
VL: B6 VL with L100F, F102L
notes: as for B6

- binding result [7]: no binding
- binding result [8]: binds
B15: 328CHI (antibody, human IgG1, V domains shown)
VH: B6 VH with Y101R
VL: B6 VL with A57G, D97N, S99Y, L100Y, F102L
notes: as for B6

More lines, now with the values behind:

B1: Hu330-2 (antibody, V domains shown)
VH: EVQLVESGGGLVQPGGSLRLSCAASGFGFSDYGMAWVRQAPGKGLEWVSFISNSAYSIYYADTVTGRFTISRDNAKNSLYLQMNSLRAEDTAVYYCARLGRGNSFAYWGQGTLVTVSS
VL: EIVMTQSPPTLSLSPGERVTLSCKSSQSLLNSGNQKNYLTWYQQKPGQAPRLLIYWGSTRESSIPARFSGSGSGTDFTLTISSLQPEDLAVYYCQNELFYPLTFGQGTKLEIK
- ADCC activity by luciferase labeling, EC50 [1]: 110 pM
- ADCC activity by luciferase labeling, Top [1]: 65100

B2: 5M (antibody, human IgG1, kappa)
heavy: QVQLQQPGAELVRPGASVKLSCKASGYTFTSYWINWVKQRPGQGLEWIGNIYPSDSYTNYNQKFKDKATLTVDKSSSTAYMQLSSPTSEDSAVYYCTRSWRGNSFDYWGQGTTLTVSSASTKGPSVFPLAPSSKSTSGGTAALGCLVKDYFPEPVTVSWNSGALTSGVHTFPAVLQSSGLYSLSSVVTVPSSSLGTQTYICNVNHKPSNTKVDKKVEPKSCDKTHTCPPCPAPELLGGPSVFLLPPKPKDTLMISRTPEVTCVVVDVSHEDPEVKFNWYVDGVEVHNAKTKPPEEQYNSTLRVVSILTVLHQDWLNGKEYKCKVSNKALPAPIEKTISKAKGQPREPQVYTLPPSRDELTKNQVSLTCLVKGFYPSDIAVEWESNGQPENNYKTTPLVLDSDGSFFLYSKLTVDKSRWQQGNVFSCSVMHEALHNHYTQKSLSLSPGK
light: DIVMTQSPSSLTVTAGEKVTMSCKSSQSLLNSGNQKNYLTWYQQKPGQPPKLLIYWASTRESGVPDRFTGSGSGTDFTLTISSVQAEDLAVYYCQNDYSYPFTFGSGTKLEIKRTVAAPSVFIFPPSDEQLKSGTASVVCLLNNFYPREAKVQWKVDNALQSGNSQESVTEQDSKDSTYSLSSTLTLSKADYEKHKVYACEVTHQGLSSPVTKSFNRGEC
- ADCC activity by luciferase labeling, EC50 [2]: 440 pM
- ADCC activity by luciferase labeling, Top [2]: 98400

B3: 305CHI (antibody, human IgG1, V domains shown)
VH: B6 VH with G28T, S54L
VL: B6 VL with D97E, Y98L, S99F, L100Y, F102L
notes: as for B6
- MFI (CLDN18.2) [3]: 38900 MFI
- in-vitro ADCC activity, Jurkat-CD16A/NF luciferase reporter, EC50 [4]: 280 pM
- in-vitro ADCC activity, Jurkat-CD16A/NF luciferase reporter, Top [4]: 216000
- Kd [5]: 865 pM
- koff [5]: 4.44e-05 s⁻¹
- kon [5]: 51300 M⁻¹ s⁻¹
- MFI (CLDN18.1) [6]: 68 MFI
- binding result [7]: no binding

B4: 321CHI (antibody, human IgG1, V domains shown)
VH: B6 VH with Y101R
VL: B6 VL with D97E, Y98L, S99F, L100Y, F102L
notes: as for B6
- MFI (CLDN18.2) [3]: 46300 MFI
- MFI (CLDN18.1) [6]: 299 MFI
- binding result [7]: no binding

B5: 315CHI (antibody, human IgG1, V domains shown)
VH: B6 VH with G28T, S54L, Y101R
VL: B6 VL with D97E, Y98L, S99F, L100Y, F102L
notes: as for B6
- MFI (CLDN18.2) [3]: 42300 MFI
- MFI (CLDN18.1) [6]: 65 MFI
- binding result [7]: no binding

B10: 301CHI (antibody, V domains shown)
VH: B6 VH with G28T, S54L
VL: B6 VL with D97N, S99Y, L100Y, F102L
notes: as for B6
- MFI (CLDN18.2) [3]: 44400 MFI
- MFI (CLDN18.1) [6]: 114 MFI
- binding result [7]: no binding

B16: 322CHI (antibody, human IgG1, V domains shown)
VH: B6 VH with G28T, S54L
VL: B6 VL with A57G, D97N, S99Y, L100Y, F102L
notes: as for B6
- MFI (CLDN18.2) [3]: 44800 MFI
- MFI (CLDN18.1) [6]: 57 MFI
- binding result [7]: no binding

B17: 324CHI (antibody, human IgG1, V domains shown)
VH: B6 VH with G28T, S54L
VL: B6 VL with A57G, D97E, Y98L, S99F, L100Y, F102L
notes: as for B6
- MFI (CLDN18.2) [3]: 36000 MFI
- MFI (CLDN18.1) [6]: 248 MFI
- binding result [7]: no binding

B18: 303CHI (antibody, V domains shown)
VH: B6 VH with G28T, D31R, R42G
VL: B6 VL with A57G, L100Y, F102L
notes: as for B6
- MFI (CLDN18.2) [3]: 38200 MFI
- MFI (CLDN18.1) [6]: 85 MFI
- binding result [7]: no binding

B19: 309CHI (antibody, human IgG1, V domains shown)
VH: B6 VH
VL: B6 VL with D97E, Y98L, S99F, L100Y, F102L
notes: as for B6
- MFI (CLDN18.2) [3]: 42500 MFI
- MFI (CLDN18.1) [6]: 78 MFI
- binding result [7]: no binding

From patent US20220119517A1 (NANJING SANHOME PHARMACEUTICAL, published 2022)
